Test results published in the DeepSol protein solubility set.

Assay: soluble on expression in E. coli; label from the status in PepcDB or PDB records

| Sequence | soluble on expression in E. coli |
| --- | --- |
| LLHGDFELAVPGGPVAAYYAAPAGREQLPIVLVVQEIFGLHEHIKDVCRRLAHDGYLAVSVNLYQRQGDASRYDNIPGLVAELVSKVPDEQVHADLDASLAWAAAHGGDGARVGVTGFCWGGRTTWMYAARNPAVKAGVAWYGRLSSGHGPLIKQVPLDVAGSLHAPVLGLYGGKDESIPLDDVRAMEARLQQGGAPAQASRIVVYPQAGHAFLADYRPSYRAADAQDGWRRMLDWFALYL | not soluble |
| MSDYENDDECWNVLEGFRVTLTSVIDPSRITPYLRQCKVLNPDDEEQVLSDPNLVIRKRKVGVLLDILQRTGHKGYVAFLESLELYYPQLYKKVTGKEPARVFSMIIDASGESGLTQLLMTEVMKLQKKVQDLTALLSSKDDFIKELRVKDSLLRKHQERVQRLKEECEAGSRELKRCKEENYDLAMRLAHQSEEKGAALMRNRDLQLEIDQLKHSLMKAEDDCKVERKHTLKLRHAMEQRPSQELLWELQQEKALLQARVQELEASVQEGKLDRSSPYIQVLEEDWRQALRDHQEQANTIFSLRKDLRQGEARRLRCMEEKEMFELQCLALRKDSKMYKDRIEAILLQMEEVAIERDQAIATREELHAQHARGLQEKDALRKQVRELGEKADELQLQVFQCEAQLLAVEGRLRRQQLETLVLSSDLEDGSPRRSQELSLPQDLEDTQLSDKGCLAGGGSPKQPFAALHQEQVLRNPHDAGLSSGEPPEKERRRLKESFENYRRKRALRKMQKGWRQGEEDRENTTGSDNTDTEGS | soluble |
| MKRQKRDRLERAQSQGYKAGLNGRSSEHCPYQSMDARSCWLGGWRDARDDKQSGLFKLEHHHHHH | not soluble |
| MSLKTLLFDVDDTLLDFKLAEKKALHALFEEENVPFTSEVESTYHRINQGLWRSFEEGKITKDVLLDTRFGLLFDAFNREVDSVKMGENYREYLSQGHDLLGNSQRILEKLAPHYDLYIVTNGVAKTQYRRLEDSKLMPYFKDIFVSEEVGYQKPMKEYFDFVFERIPNFSREKTMIIGDSLHSDIQGGQQAKIQTVWLNPTSAPATPTIQPNYTIQQLDELLPILGHEGHHHHHH | soluble |
| MPKELWPLTGSRLEGSSMADRRRQRRTSKAGVGGRRVEYKRVPLGFIKAIVKTGHVVVEPSEKVRRNPPRGRFQVLLAGDGEVGYVSDVIGPINSPFIVVRVRERGVIEKLSPGAELIMLVPPKKPPRKGAPRRGSSRGRRGFKKGKARG | soluble |
| MSLANADTYQPSYSTAGFYQLSNTGRTVYNMNPAWRFYKGNIEGAEQPRFNDKDWNIVSLPDGIEYLPTEASGCINYQGEIWYRKHFTPKESWKGKQQFLHFEAIMGKSKIWVNGKLLKEHFGGFLPVIVDVTSSLKYGEDNVITVWADNSDDPSYPPGKPQDALDFAYFGGIYRDCWMIVHNKVFITDPNYENETAGGGLFVSFDKVSEQSAQLKLDAHIRNTSGKSFSGKIIYELYDRDDKRVLSKETGLSVSKDLAKQISCKVTVETPHLWSPDSPYLYKLHIYIKDKAGNTIDGYYRRIGIRSIEFKGKDGFWLNGKPYPYPLMGANRHQDFAVIGNALPNSLHWRDAKKLRDAGMRVIRNAHYPQDPAFMDACDELGLFVIVNTPGWQFWNDQPIFAQRVYSDIRNMVRRDRNHPSVWMWEPILNETWYPADFAKNVVDILNEEYPYPYCYAGCDVTARGHEYFPIHFTHPMNGGGGAFNTENLDPKISYFTREWGDNVDDWNSHNSPSRVNRGWGEVPMLIQAQGYAKNDYQLTSYDGLYRTSRQHMGGCLWHSFDHQRGYHPDPFYGGIMDAFRQPKLSYYMFCSQRPAEPNKELIADEGHHHHHH | soluble |
| MAGDPMETLLIQQTEKSNKFWKIVVKEKDYVVFYGKIGTAGSVKAKEFETEEECMNEANKLVASKRKKGYIDPLPGEDYIKEKTITEEEFWELLHRAKTKGEDQEEQIEWLTSHLAKRTVHEIVAFDTHMHSLLKDSYTSRLWAAAYIIMGGCSDDTFDYFRGWLLYQGKETYEACIEDPERLIPVLENLSEYDVPEIEELSLYFGFTVYAEKTGDEDDTYFTLYHVLSNEEFDDVDFEFDWNEDDEEGLKKVFPRLWEMYGEEPIEWLEHHHHHH | soluble |
| DVQPETCRPSAASGNYFPQYPEYAIETARLRTFEAWPRNLKQKPHQLAEAGFFYTGVGDRVRCFSCGGGLMDWNDNDEPWEQHALWLSQCRFVKLMKGQLYIDTVAAKPVLAEEKEESTSIGGD | soluble |
| MMQALTYYRDLAANTMPGSNDIMEVKDAFMNGTAPMAIYSTYILPAVIKEGDPKNVGFVVPTEKNSAVYGMLTSLTITAGQKTEETEAAEKFVTFMEQADNIADWVMMSPGAALPVNKAVVTTSTWKDNDVIKALGELPNQLIGELPNIQVFGAVGDKKFTRMGDVTGSGVVSSMVHNVTVGKADLPGTLQTSQKKLDELIEQH | not soluble |
